# Reference: US20220154204A1, “ENHANCING DROUGHT, SALINITY AND COLD TOLERANCE IN PLANTS AND TREES” (The Regents of the University of California, priority 2019, published 2022)
# T1: OST1/SnRK2.6 (Arabidopsis thaliana, UniProt Q940H6)
# T1 construct: made in house; host or cells: E. coli
# T1 sequence (Q940H6 1-362): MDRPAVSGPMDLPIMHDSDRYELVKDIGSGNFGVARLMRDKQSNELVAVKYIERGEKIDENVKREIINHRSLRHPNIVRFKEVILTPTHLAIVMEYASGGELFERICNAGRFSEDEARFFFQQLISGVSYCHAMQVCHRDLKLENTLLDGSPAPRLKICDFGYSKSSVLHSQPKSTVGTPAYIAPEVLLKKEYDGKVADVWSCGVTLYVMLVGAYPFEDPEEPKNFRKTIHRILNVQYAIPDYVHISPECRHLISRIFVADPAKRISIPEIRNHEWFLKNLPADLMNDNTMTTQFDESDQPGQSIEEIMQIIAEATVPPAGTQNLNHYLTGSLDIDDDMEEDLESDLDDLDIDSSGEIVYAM
# B1: CPKδ: calcium-dependent protein kinase of ABA signalling (protein, UniProt Q38872 2-544, looked up)
# Calcium-dependent protein …: GNSCRGSFKDKIYEGNHSRPEENSKSTTTTVSSVHSPTTDQDFSKQNTNPALVIPVKEPIMRRNVDNQSYYVLGHKTPNIRDLYTLSRKLGQGQFGTTYLCTDIATGVDYACKSISKRKLISKEDVEDVRREIQIMHHLAGHKNIVTIKGAYEDPLYVHIVMELCAGGELFDRIIHRGHYSERKAAELTKIIVGVVEACHSLGVMHRDLKPENFLLVNKDDDFSLKAIDFGLSVFFKPGQIFKDVVGSPYYVAPEVLLKHYGPEADVWTAGVILYILLSGVPPFWAETQQGIFDAVLKGYIDFDTDPWPVISDSAKDLIRKMLCSSPSERLTAHEVLRHPWICENGVAPDRALDPAVLSRLKQFSAMNKLKKMALKVIAESLSEEEIAGLRAMFEAMDTDNSGAITFDELKAGLRRYGSTLKDTEIRDLMEAADVDNSGTIDYSEFIAATIHLNKLEREEHLVSAFQYFDKDGSGYITIDELQQSCIEHGMTDVFLEDIIKEVDQDNDGRIDYEEFVAMMQKGNAGVGRRTMKNSLNISMRDV
# B2: MPK12: MAP kinase of ABA signalling (protein)
# chain: MSGESSSGSTEHCIKVVPTHGGRYVQYNVYGQLFEVSRKYVPPIRPIGRGACGIVCAAVNSVTGEKVAIKKIGNAFDNIIDAKRTLREIKLLRHMDHENVITIKDIVRPPQRDIFNDVYIVYELMDTDLQRILRSNQTLTSDQCRFLVYQLLRGLKYVHSANILHRDLRPSNVLLNSKNELKIGDFGLARTTSDTDFMTEYVVTRWYRAPELLLNCSEYTAAIDIWSVGCILGEIMTGQPLFPGKDYVHQLRLITELVGSPDNSSLGFLRSDNARRYVRQLPRYPKQQFAARFPKMPTTAIDLLERMLVFDPNRRISVDEALGHAYLSPHHDVAKEPVCSTPFSFDFEHPSCTEEHIKELIYKESVKFNPDH
# Biological target: T1, OST1/SnRK2.6
# Experiment: In vitro phosphorylation assay of CIAP-dephosphorylated GST-OST1/SnRK2.6 with other protein kinases
# Type: biochemical
# Conditions: GST-OST1/SnRK2.6 dephosphorylated by CIAP, [γ-32P]-ATP
# Experimental: We investigated phosphorylation of purified recombinant GST-tagged OST1/SnRK2.6 protein kinase after dephosphorylation in vitro. To test whether OST1/SnRK2.6 could be re-activated by autophosphorylation, after dephosphorylation, the GST-OST1/SnRK2.6 protein bound on glutathione sepharose 4B resin was incubated with calf intestinal alkaline phosphatase (CIAP), and [γ-^32P]-ATP was added to the reaction after wash out of CIAP. […] Therefore, another unknown protein kinase may be required for reversible ABA signal transduction.
# 10 μg GST-OST1/SnRK2.6 proteins were bound to glutathione sepharose 4B beads and incubated with 30 U CIAP for 2 hr at room temperature. […]
# a, Seeds of amiR-HsMYO wild-type (control line) or amiR-ax1117 mutant were sowed on ½ MS medium containing 2 μM ABA, or 0.02% EtOH as control, for germination assays. Representative images showing seed germination after 6 days. b, The percentage of seedlings showing green cotyledons was analyzed. […] In-gel kinase assays were performed using histone type III-S as a substrate. e, SnRK2 band intensities as shown in (d) were measured using ImageJ, n=3 experiments, error bars show +/−s.e.m. f, Recombinant GST-OST1/SnRK2.6 protein was dephosphorylated by alkaline phosphatase in vitro and used for in vitro phosphorylation assays after incubation with CPK6, CPK23 or MPK12 protein kinases. […]
row,Molecule,phosphorylation of OST1/SnRK2.6 after dephosphorylation
1,B1,did not phosphorylate
2,B2,did not phosphorylate
